{
  "source": "patent CN114276439A",
  "about": "(YUDOLONG SUZHOU MEDICAL SCIENCE AND TECH LIMITED COMPANY, dated 2022)",
  "key": {"HPV16假病毒": {"molecular_target": "T1, HPV16假病毒 (HPV16, UniProt P03101 1-505)", "T1 sequence": "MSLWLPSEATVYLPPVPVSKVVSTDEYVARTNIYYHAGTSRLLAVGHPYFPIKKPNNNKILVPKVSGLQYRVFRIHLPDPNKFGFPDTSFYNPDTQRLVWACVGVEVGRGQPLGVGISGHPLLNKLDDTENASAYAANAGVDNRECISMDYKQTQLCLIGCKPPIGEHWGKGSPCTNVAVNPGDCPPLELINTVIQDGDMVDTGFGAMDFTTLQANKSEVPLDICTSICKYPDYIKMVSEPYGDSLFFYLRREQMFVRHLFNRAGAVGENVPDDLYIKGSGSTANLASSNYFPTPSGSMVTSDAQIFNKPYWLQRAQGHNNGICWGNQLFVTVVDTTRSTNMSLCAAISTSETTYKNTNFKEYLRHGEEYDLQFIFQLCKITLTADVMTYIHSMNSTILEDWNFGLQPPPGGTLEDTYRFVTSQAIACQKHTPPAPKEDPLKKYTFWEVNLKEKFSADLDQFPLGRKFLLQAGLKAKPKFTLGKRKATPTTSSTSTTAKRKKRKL", "experiment": "cell-based or functional assay"}, "HPV11 VLP": {"molecular_target": "T2, HPV11 VLP (HPV11, UniProt P04012 1-501)", "T2 sequence": "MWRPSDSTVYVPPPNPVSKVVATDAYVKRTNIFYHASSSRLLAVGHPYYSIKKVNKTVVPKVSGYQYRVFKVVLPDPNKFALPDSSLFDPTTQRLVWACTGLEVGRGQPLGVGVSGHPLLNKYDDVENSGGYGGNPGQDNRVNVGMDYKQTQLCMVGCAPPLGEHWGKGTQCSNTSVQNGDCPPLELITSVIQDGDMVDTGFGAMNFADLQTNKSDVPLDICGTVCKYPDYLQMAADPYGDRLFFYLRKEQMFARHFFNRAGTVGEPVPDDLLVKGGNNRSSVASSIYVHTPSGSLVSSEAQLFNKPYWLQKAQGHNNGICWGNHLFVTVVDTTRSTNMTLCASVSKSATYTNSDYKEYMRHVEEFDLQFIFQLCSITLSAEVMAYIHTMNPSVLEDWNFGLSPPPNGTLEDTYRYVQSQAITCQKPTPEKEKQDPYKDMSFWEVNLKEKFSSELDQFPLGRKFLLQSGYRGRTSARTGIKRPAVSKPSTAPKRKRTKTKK", "experiment": "indirect ELISA, VLP coated at 0.25 μg/ml"}},
  "data": [
    {"binder": "单克隆抗体50A11 (antibody, V domains shown, constant regions are not) VH: DVQLQESGPGLVKPSQSLSLTCTVTGYSITSYHAWNWIRQFPGNKLEWMAYINYSGKTSYNPSLKSRISITRDTSKNQFLLQLNSVTTEDTATYYCARVDWEGNYFDYWGQGTTVTVSS VL: DVLMTQTPLSLPVSLGDQASISCRSSQSILHSNGNTYLQWYLQKPGQSPNLLIYKVSNRFSGVPDRFSGSGSGTDFTLKISRVEAEDLGVYYCFQGSHVPPTFGGGTKLEIKR", "values": [
      {"measurement": "HPV16假病毒中和反应IC50", "setting": "HPV16假病毒", "result": 1.35, "unit": "ng/mL"},
      {"measurement": "binding result", "setting": "HPV11 VLP", "result": "no binding"}
    ]}
  ]
}
